Assay results taken from patent US20210388097A1 (SORRENTO THERAPEUTICS, published 2021).

Experiments:
[1] = molecular target: T1, his-tagged human BCMA protein (ACROBiosystems, catalog # BCA-H522y-100 ug) (human, UniProt Q02223 1-54); experiment: SPR (Biacore T200), antibody captured on anti-human Fc chip, his-tagged human BCMA as analyte
T1 construct: limits of the bought construct are not otherwise stated; also called recombinant his-tagged human BCMA; not shown: his tag of the bought protein
T1 sequence: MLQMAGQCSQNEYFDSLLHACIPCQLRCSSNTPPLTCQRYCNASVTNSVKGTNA
Method: (§1) Binding kinetics of anti-BCMA antibodies with his-tagged human BCMA protein (ACROBiosystems, catalog # BCA-H522y-100 ug, UniProt Q02223-1, SEQ ID NO:92) was measured using surface plasmon resonance (SPR). Kinetic interactions between the antibodies and his-tagged BCMA proteins were measured at 25° C. using Biacore T200 surface plasmon resonance (GE Healthcare). Anti-human fragment crystallizable region (Fc region) antibody was immobilized on a CM5 sensor chip to approximately 8000 resonance units (RU) using standard N-hydroxysuccinimide/N-Ethyl-N′-(3-dimethylaminopropyl) carbodiimide hydrochloride (NHS/EDC) coupling methodology. The anti-BCMA antibody (2 μg/mL) was captured for 60 seconds at a flow rate of 10 μL/minute. The his-tagged BCMA protein was run at […] different dilutions of 3.12, 6.25, 12.5, 25, 50, 100 and 200 nM, in a running buffer of 0.01 M HEPES pH 7.4, 0.15 M NaCl, 3 mM EDTA, 0.05% v/v Surfactant P20 (HBS-EP+). The 25 nM BCMA protein run was measured two times. All measurements were conducted in HBS-EP+ buffer with a flow rate of 30 μL/minute. A 1:1 (Langmuir) binding model was used to fit the data. […]
(§2) Cross reactivity of two of the anti-BCMA antibodies, BCA7-2C5 and BCA7-2E1, with his-tagged human, cynomolgus or mouse BCMA protein were analyzed by SPR in the manner as described above. […]

[2] = molecular target: T2, human BAFFR/TNFRSF13C (CD268) Fc tag, from Sino Biological (human, UniProt Q96RJ3 1-71, limits assumed); experiment: bio-layer interferometry, antibody coupled to AR2G sensor, BAFFR in solution
T2 construct: Bought protein; not shown: Fc tag
T2 sequence (looked up): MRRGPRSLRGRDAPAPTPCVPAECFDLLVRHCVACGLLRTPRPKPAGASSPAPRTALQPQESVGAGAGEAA
Method: (§3) Bio-layer interferometry was used to measure cross-binding between (1) two different anti-BCMA antibodies (BCA7-2C5 or BB C11D5) or a control isotype, and (2) various human antigens including TACI and BAFFR.
(§4) Immobilization of antibody was achieved through standard EDC-catalyzed amide bond formation to create a covalent bond between a reactive amine on the protein and the carboxy-terminated biosensor surface. Briefly, AR2G sensors (OctetRED96e from ForteBio) were activated by EDC-NHS for 6 minutes, then 5 ug/ml antibodies were loaded (BCA7-2C5 antibody, Bluebird C11D5 chimeric antibody, or a human IgG isotype antibody) in 10 mM acetate buffer pH 5.0 for 6 minutes, followed by quenching for 6 minutes with 1M ethanolamine pH 8.5. The 3 minutes baseline step removed any unbound antibody from the biosensor, followed by 1.5 minutes each for association of three analyte proteins TACI (human TACI/TNFRSF13B (CD267) His-tag, from Sino Biological, 1 ug/mL in PBS), BAFFR (human BAFFR/TNFRSF13C (CD268) Fc tag) from Sino Biological, 2 ug/mL in PBS), and human BCMA protein (in-house made with mouse Fc, 2 ug/mL in PBS).

[3] = molecular target: T3, his-tagged mouse BCMA protein (ACROBiosystems, catalog # BCA-M52H3) (mouse, UniProt O88472 1-49); experiment: SPR (Biacore T200), antibody captured on anti-human Fc chip, his-tagged mouse BCMA as analyte
T3 construct: Bought protein; not shown: his tag
T3 chain (looked up): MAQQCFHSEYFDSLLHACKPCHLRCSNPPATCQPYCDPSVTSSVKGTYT
Method: as §1, §2

[4] = molecular target: T4, human TACI/TNFRSF13B (CD267) His-tag, from Sino Biological (human, UniProt O14836 1-166, limits assumed); experiment: bio-layer interferometry, antibody coupled to AR2G sensor, TACI in solution
T4 construct: Bought protein; not shown: His-tag
T4 sequence (looked up): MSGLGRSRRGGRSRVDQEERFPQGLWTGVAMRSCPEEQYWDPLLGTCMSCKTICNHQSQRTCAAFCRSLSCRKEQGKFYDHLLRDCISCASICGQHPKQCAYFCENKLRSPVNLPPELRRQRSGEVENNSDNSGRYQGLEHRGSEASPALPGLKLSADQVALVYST
Method: as §3, §4

[5] = molecular target: T5, his-tagged cynomolgus BCMA protein (ACROBiosystems, catalog # BCA-052H7) (cynomolgus, UniProt A0A2K5UD97 1-53); experiment: SPR (Biacore T200), antibody captured on anti-human Fc chip, his-tagged cynomolgus BCMA as analyte
T5 construct: Bought protein; also called cyno BCMA; not shown: his tag
T5 sequence (A0A2K5UD97 entry or part of it): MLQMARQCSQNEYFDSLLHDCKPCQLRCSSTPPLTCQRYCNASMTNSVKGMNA
Method: as §1, §2

BCMA on MM1R cells = molecular target: T6, BCMA on MM1R cells (human, UniProt Q02223); experiment: flow cytometry on MM1R cells, 5x serial dilution, FITC goat anti-human IgG F(ab')2, GeoMean BL1-H
T6 construct: full length, on the surface of MM1R multiple myeloma cells; also called MM1R multiple myeloma cell line
T6 sequence (receptor, looked up): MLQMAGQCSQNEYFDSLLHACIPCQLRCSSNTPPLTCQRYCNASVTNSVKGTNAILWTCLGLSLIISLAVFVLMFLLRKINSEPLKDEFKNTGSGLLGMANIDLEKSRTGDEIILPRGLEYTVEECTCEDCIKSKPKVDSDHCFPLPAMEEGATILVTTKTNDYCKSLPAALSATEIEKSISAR
Excerpt: Flow cytometry was used to test antibody binding to multiple myeloma cell line MM1R, using various anti-BCMA antibodies (5× serial dilution) and 80,000 cells per well. The secondary antibody was FITC AffiniPure FAB2 fragment goat anti-human IgG (H+L) (from Jackson Immuno Research). […] A BL-1 detector (IntelliCyt iQue Screener Plus) which detects at 530 nm was used. The geometric mean is reported.

B1: BCA7-2C5 antibody (antibody, V domains shown)
VH: EVQLVESGGGLVKPGGSLRLSCAASGFTSSTAWMSWVRQAPGKGLEWVGRIKSKSDGGTTDYAAPVKGRFTISRDDSKNTLFLQMNSLKTEDTAVYYCAKGGGTYGYWGQGTTVTVSS
VL: QSALTQPASVSGSPGQSVTISCTGTSSAHGGHYYVSWYQQHPGKAPKLMIYDVSNRPSGVSNRFSGSKSGNTASLTISGLQAEDEADYYCGSYTSSGSYVFGTGTKLTVL
[1]
  Kd: 19.4 nM
[2]
  binding result: no binding (tested: 2 ug/mL)
[3]
  Kd: 880 nM
[4]
  binding result: no binding (tested: 1 ug/mL)
[5]
  Kd: 57 nM
BCMA on MM1R cells
  EC50 (read off the curve): ~0.08 µg/mL
